In patent publication US20190300618A1 (Merck Sharp & Dohme, published 2019):

T1: H36A
T1 construct: also called hCD27 H36A
T1 receptor: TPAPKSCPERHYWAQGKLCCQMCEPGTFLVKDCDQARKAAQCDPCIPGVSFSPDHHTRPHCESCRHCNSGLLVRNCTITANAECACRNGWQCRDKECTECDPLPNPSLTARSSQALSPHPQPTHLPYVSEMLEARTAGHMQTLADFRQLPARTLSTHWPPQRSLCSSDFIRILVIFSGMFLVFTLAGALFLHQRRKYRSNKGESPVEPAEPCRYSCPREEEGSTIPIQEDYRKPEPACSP

T2: S63A
T2 construct: also called hCD27 S63A
T2 receptor: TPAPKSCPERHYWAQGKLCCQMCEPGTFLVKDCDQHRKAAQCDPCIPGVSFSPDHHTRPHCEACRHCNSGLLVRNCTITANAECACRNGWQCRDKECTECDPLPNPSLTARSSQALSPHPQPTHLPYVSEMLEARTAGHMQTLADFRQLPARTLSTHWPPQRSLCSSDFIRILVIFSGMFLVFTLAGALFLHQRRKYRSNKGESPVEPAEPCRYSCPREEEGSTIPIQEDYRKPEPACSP

T3: D32A
T3 construct: also called hCD27 D32A
T3 receptor: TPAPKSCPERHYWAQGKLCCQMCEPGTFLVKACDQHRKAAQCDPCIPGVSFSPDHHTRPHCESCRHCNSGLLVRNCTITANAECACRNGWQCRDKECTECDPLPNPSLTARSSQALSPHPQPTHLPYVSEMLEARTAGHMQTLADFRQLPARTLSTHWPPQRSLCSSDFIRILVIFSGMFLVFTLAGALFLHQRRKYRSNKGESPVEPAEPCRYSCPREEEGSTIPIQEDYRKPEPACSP

T4: P8A
T4 construct: also called hCD27 P8A
T4 receptor: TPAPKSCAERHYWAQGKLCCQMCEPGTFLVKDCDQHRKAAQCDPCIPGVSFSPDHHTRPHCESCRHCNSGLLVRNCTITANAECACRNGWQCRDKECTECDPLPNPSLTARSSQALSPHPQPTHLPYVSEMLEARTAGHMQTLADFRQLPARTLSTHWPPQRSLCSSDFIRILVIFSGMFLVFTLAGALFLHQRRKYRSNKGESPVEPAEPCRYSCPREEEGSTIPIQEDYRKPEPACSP

T5: H60A
T5 construct: also called hCD27 H60A
T5 receptor: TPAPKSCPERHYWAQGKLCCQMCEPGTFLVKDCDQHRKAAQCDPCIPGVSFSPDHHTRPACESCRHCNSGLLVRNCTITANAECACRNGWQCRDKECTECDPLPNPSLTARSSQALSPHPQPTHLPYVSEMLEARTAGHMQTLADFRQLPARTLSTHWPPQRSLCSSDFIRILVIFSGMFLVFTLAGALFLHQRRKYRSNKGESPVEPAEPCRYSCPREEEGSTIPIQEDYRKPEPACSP

T6: D43A
T6 construct: also called hCD27 D43A
T6 receptor: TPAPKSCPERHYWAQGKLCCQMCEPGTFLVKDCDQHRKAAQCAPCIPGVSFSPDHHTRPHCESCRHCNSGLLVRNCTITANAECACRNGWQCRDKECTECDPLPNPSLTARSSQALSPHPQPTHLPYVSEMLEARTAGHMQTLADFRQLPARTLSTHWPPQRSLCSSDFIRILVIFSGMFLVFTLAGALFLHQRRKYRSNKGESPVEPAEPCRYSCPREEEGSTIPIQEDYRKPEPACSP

T7: V30A
T7 construct: also called hCD27 V30A
T7 receptor: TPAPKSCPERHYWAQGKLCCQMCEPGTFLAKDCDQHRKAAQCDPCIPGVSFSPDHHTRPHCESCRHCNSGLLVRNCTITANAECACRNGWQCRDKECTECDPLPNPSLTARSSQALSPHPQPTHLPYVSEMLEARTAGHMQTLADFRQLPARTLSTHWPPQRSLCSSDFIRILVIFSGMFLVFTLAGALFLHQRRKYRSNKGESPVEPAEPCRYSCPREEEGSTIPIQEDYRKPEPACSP

T8: R93A
T8 construct: also called hCD27 R93A
T8 receptor: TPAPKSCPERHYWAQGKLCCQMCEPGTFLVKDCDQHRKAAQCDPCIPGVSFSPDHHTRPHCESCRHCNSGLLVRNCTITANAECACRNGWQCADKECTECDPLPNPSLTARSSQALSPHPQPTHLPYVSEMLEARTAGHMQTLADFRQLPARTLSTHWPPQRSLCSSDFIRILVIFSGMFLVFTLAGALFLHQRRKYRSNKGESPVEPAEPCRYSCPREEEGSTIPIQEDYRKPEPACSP

T9: E9A
T9 construct: also called hCD27 E9A
T9 receptor: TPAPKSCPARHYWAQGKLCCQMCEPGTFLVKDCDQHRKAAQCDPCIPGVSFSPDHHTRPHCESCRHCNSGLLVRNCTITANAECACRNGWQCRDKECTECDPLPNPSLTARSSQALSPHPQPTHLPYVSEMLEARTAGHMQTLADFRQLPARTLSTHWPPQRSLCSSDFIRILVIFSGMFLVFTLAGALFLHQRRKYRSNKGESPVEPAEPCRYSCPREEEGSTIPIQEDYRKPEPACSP

T10: Q41A
T10 construct: also called hCD27 Q41A
T10 receptor: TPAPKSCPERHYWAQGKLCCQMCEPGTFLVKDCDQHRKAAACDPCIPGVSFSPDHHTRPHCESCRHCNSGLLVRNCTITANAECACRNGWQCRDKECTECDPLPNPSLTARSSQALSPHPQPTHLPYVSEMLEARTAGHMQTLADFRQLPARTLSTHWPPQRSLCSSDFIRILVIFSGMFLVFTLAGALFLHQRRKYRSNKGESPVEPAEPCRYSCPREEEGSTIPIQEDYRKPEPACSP


Legend:
[1] = molecular target: T1, H36A; test: flow cytometry, CHO-K1; sub-column 1 of 2
[2] = molecular target: T2, S63A; test: flow cytometry, CHO-K1; sub-column 1 of 2
[3] = molecular target: T3, D32A; test: flow cytometry, CHO-K1; sub-column 1 of 2
[4] = molecular target: T4, P8A; test: flow cytometry, CHO-K1; sub-column 1 of 2
[5] = molecular target: T5, H60A; test: flow cytometry, CHO-K1; sub-column 2 of 2
[6] = molecular target: T1, H36A; test: flow cytometry, CHO-K1; sub-column 2 of 2
[7] = molecular target: T6, D43A; test: flow cytometry, CHO-K1; sub-column 2 of 2
[8] = molecular target: T7, V30A; test: flow cytometry, CHO-K1; sub-column 2 of 2
[9] = molecular target: T8, R93A; test: flow cytometry, CHO-K1; sub-column 2 of 2
[10] = molecular target: T9, E9A; test: flow cytometry, CHO-K1; sub-column 2 of 2
[11] = molecular target: T10, Q41A; test: flow cytometry, CHO-K1; sub-column 2 of 2

% of WT hCD27 binding (geo mean FITC) [1] | % of WT hCD27 binding (geo mean FITC) [2] | % of WT hCD27 binding (geo mean FITC) [3] | % of WT hCD27 binding (geo mean FITC) [4] | % of WT hCD27 binding (geo mean FITC) [5] | % of WT hCD27 binding (geo mean FITC) [6] | % of WT hCD27 binding (geo mean FITC) [7] | % of WT hCD27 binding (geo mean FITC) [8] | % of WT hCD27 binding (geo mean FITC) [9] | % of WT hCD27 binding (geo mean FITC) [10] | % of WT hCD27 binding (geo mean FITC) [11] | Molecule
111% | 158% | 43.7% | 84.5% | 120% | 85.2% | 93.4% | 102% | 91.1% | 122% | 76.1% | 1A4 (mouse IgG1) (antibody)
88.5% | 153% | 118% | 68.5% | 126% | 66.5% | 92.5% | 95.6% | 91.1% | 109% | 71.3% | 9F4 (mouse IgG2a) (antibody)
54.1% | 162% | 113% | 44.9% | 129% | 10.8% | 96.2% | 94% | 90% | 132% | 80.5% | Antibody hCD27.131A (mouse parental 131A) (antibody, V domains shown, mouse IgG1; also called mouse hCD27.131A) VH: QIQLVQSGPELKKPGETVKISCKASGYTFTNYGMNWVKQAPGKGLKWMGWINTNTGEPTYAEEFKGRFAFSLETSATTAYLQINNLKNEDTATYFCAREGDAMDYWGQGTSVTVSS VL: QIVLTQSPAIMSASPGEKVTMTCSASSSVSYMHWYQQKSGTSPKRWIYDTSKLASGVPARFSGSGSGTSYSLTISSMEAEDAATYYCQQWNSYPFTFGSGTKLEIK
